Experimental data as given in IntAct's records for PubMed 29997244.

B1: DnaJ homolog subfamily C member 5 (Homo sapiens), Q9H3Z4 (parent)
chain: MADQRQRSLSTSGESLYHVLGLDKNATSDDIKKSYRKLALKYHPDKNPDNPEAADKFKEINNAHAILTDATKRNIYDKYGSLGLYVAEQFGEENVNTYFVLSSWWAKALFVFCGLLTCCYCCCCLCCCFNCCCGKCKPKAPEGEETEFYVSPEDLEAQLQSDEREATDTPIVIQPASATETTQLTADSHPSYHTDGFN
partner: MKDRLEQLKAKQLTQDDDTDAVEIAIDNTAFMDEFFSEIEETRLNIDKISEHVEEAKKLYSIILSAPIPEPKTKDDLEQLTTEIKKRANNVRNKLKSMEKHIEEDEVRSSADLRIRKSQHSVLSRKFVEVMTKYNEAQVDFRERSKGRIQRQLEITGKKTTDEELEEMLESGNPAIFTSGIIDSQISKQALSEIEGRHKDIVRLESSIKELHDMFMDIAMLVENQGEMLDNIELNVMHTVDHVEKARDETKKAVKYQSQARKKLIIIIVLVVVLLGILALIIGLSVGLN
B2: DnaJ homolog subfamily C member 5 (Homo sapiens), Q9H3Z4 (parent)
chain: B1 chain
partner: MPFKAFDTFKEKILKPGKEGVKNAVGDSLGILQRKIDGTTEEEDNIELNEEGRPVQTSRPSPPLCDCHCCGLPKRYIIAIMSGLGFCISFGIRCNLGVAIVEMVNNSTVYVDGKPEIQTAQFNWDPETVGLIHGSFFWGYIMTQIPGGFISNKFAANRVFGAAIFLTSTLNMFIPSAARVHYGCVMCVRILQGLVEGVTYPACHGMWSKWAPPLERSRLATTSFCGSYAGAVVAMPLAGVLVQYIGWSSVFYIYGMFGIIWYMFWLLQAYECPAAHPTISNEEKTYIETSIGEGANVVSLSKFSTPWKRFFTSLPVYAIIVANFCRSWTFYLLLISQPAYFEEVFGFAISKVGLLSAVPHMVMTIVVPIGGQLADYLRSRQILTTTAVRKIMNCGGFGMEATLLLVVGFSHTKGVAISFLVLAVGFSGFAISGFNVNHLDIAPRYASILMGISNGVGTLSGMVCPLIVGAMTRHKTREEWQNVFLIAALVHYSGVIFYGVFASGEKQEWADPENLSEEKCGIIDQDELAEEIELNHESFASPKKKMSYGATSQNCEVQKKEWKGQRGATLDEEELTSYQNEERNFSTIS
B3: DnaJ homolog subfamily C member 5 (Homo sapiens), Q9H3Z4 (parent)
chain: B1 chain
partner: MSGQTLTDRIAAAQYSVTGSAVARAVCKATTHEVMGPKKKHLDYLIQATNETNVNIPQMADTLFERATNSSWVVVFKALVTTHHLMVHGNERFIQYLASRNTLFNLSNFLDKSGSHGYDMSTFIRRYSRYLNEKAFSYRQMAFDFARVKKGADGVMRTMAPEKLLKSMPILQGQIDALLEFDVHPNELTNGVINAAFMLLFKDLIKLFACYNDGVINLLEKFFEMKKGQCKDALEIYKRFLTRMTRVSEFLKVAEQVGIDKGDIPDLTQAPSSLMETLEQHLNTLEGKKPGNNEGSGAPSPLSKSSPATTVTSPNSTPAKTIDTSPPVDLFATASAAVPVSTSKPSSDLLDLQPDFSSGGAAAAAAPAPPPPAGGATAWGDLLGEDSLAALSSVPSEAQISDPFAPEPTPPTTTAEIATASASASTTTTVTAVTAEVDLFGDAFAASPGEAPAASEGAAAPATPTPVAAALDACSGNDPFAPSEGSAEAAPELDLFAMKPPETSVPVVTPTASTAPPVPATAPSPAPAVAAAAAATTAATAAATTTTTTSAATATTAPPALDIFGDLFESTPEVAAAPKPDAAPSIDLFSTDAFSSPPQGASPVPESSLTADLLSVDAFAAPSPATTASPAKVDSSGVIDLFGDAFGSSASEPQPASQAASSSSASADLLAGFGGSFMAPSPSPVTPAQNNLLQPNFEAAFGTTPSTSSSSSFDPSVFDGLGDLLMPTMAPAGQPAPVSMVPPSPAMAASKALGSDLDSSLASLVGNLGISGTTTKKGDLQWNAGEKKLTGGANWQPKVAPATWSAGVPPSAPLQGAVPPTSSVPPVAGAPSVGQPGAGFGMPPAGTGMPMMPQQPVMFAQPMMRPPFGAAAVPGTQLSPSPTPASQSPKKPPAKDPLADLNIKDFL
B4: DnaJ homolog subfamily C member 5 (Homo sapiens), Q9H3Z4 (parent)
chain: B1 chain
partner: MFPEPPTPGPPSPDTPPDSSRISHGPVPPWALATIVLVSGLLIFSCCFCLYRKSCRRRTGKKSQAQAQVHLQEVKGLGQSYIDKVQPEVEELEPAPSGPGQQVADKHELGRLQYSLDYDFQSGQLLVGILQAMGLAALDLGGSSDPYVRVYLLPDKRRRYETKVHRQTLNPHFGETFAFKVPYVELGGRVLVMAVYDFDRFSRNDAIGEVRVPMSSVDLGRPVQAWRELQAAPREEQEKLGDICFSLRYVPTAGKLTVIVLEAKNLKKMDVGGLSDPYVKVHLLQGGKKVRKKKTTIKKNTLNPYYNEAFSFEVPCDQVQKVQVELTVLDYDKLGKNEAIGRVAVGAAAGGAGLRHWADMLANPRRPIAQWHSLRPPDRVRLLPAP
B5: DnaJ homolog subfamily C member 5 (Homo sapiens), Q9H3Z4 (parent)
chain: B1 chain
partner: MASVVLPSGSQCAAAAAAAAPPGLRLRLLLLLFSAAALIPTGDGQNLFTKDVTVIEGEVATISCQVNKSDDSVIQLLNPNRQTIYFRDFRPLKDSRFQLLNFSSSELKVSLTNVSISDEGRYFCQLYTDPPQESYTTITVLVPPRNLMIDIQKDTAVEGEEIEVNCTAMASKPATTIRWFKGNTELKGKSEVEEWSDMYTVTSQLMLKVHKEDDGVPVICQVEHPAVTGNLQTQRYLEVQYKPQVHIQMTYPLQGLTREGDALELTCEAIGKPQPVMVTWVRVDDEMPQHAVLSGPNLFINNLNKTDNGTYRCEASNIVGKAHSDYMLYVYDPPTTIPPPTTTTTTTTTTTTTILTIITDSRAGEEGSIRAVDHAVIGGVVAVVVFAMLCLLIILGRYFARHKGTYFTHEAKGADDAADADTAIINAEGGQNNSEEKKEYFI
B6: DnaJ homolog subfamily C member 5 (Homo sapiens), Q9H3Z4 (parent)
chain: B1 chain
partner: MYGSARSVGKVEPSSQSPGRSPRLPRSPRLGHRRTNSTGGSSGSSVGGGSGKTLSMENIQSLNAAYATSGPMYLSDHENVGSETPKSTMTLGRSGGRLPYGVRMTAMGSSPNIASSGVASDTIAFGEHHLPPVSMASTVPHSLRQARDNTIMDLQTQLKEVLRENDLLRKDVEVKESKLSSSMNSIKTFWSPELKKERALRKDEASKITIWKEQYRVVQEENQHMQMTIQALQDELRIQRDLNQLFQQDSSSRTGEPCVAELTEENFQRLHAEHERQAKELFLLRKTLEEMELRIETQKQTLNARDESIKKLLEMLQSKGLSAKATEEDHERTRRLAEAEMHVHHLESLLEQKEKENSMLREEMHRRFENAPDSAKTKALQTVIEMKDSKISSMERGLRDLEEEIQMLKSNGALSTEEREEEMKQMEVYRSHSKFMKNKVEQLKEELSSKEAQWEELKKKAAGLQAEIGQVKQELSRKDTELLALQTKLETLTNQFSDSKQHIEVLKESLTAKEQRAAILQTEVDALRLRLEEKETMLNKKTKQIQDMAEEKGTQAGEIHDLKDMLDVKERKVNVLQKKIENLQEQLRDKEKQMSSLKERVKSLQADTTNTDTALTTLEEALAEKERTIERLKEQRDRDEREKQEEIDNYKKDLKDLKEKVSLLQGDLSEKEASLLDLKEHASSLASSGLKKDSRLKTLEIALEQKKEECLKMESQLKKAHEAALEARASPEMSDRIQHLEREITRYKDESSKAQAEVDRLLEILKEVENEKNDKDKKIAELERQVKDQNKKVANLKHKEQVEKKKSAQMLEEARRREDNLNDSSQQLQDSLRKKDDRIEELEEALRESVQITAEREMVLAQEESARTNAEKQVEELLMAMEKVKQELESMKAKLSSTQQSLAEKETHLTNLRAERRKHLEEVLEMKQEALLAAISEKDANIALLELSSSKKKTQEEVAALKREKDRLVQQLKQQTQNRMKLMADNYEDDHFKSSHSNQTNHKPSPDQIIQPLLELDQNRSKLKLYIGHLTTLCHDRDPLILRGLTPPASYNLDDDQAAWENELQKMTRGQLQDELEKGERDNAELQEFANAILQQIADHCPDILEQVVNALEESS
B7: DnaJ homolog subfamily C member 5 (Homo sapiens), Q9H3Z4 (parent)
chain: B1 chain
partner: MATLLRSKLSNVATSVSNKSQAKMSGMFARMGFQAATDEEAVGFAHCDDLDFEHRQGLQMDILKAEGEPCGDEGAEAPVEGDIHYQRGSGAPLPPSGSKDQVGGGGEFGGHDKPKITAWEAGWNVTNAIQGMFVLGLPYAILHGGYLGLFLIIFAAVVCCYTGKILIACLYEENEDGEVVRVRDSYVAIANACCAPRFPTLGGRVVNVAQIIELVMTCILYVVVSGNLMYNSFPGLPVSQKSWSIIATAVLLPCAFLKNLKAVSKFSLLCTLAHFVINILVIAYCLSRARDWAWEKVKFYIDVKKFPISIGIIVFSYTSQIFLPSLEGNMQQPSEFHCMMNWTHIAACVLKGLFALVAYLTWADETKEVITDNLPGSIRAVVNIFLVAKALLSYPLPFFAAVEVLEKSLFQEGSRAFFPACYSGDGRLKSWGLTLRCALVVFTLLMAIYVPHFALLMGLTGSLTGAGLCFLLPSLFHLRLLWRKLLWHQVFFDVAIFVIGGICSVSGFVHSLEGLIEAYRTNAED
B8: DnaJ homolog subfamily C member 5 (Homo sapiens), Q9H3Z4 (parent)
chain: B1 chain
partner: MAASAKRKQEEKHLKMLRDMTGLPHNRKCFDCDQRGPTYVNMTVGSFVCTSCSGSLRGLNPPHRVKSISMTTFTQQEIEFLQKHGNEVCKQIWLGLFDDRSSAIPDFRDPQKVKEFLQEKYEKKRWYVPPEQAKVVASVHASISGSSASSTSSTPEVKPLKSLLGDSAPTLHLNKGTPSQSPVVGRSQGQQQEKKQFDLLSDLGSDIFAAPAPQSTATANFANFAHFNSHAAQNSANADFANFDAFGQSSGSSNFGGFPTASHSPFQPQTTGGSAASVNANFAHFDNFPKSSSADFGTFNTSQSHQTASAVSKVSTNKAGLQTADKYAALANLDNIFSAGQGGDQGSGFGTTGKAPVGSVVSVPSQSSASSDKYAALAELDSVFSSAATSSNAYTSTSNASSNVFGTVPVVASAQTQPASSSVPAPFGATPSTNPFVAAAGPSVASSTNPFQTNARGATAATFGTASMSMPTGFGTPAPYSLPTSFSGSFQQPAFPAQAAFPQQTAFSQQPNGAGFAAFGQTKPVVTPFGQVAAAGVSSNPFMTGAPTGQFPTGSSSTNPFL
B9: DnaJ homolog subfamily C member 5 (Homo sapiens), Q9H3Z4 (parent)
chain: B1 chain
partner: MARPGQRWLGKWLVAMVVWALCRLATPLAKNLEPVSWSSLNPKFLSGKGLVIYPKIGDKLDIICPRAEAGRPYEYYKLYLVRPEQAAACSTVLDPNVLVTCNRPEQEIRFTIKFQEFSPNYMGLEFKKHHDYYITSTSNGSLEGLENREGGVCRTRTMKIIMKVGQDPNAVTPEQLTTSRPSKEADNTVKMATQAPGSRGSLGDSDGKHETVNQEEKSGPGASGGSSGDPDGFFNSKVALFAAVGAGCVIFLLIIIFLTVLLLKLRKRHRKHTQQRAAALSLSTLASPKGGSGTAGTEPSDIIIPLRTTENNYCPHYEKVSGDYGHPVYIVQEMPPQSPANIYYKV

Variants of: B1
Settings: with stx3_human STX3, Q13277
For L115R, the “effect of a mutation on the interaction” value was “with no effect”.

Variants of: B2
Settings: with vglu3_human SLC17A8, Q8NDX2
For L115R, the “effect of a mutation on the interaction” value was “with no effect”.

Variants of: B3
Settings: with ap180_human SNAP91, O60641
With L115R the “effect of a mutation on the interaction” value was “with no effect”.

Variants of: B4
Settings: with syt5_human SYT5, O00445
L115R was tested, and the “effect of a mutation on the interaction” value was “with no effect”.

Variants of: B5
Settings: with cadm1_human CADM1, Q9BY67
For L115R, the “effect of a mutation on the interaction” value was “decreasing interaction strength”.

Variants of: B6
Settings: with rb6i2_human ERC1, Q8IUD2
L115R was tested, and the “effect of a mutation on the interaction” value was “with no effect”.

Variants of: B7
Settings: with viaat_human SLC32A1, Q9H598
With L115R the “effect of a mutation on the interaction” value was “with no effect”.

Variants of: B8
Settings: with agfg1_human AGFG1, P52594
With L115R the “effect of a mutation on the interaction” value was “with no effect”.

Variants of: B9
Settings: with efnb1_human EFNB1, P98172
L115R was tested, and the “effect of a mutation on the interaction” value was “decreasing interaction strength”.
